# Assay: soluble on expression in E. coli; label from the status in PepcDB or PDB records
row,Sequence,soluble on expression in E. coli
1,GPGSMEQGAFNDVAKKALEFRNRYYKMLDDPQDRLNVAGLYAPDVPMVCEWNGHPLSTVDDVRNYISALPKTSHQVDMVDAQPLPDNQDGDSFLLTVHGIVTYNDEHRREFYQRMVIRRFEQRYYILNDYYRWLSERSQ,soluble
2,GPGSMESSMSTGDLLTPGALWQDDTKVFVCSGRRCGRRFNRLFCPKHRCRWCGRVYCDACAPKQTVYKRQLLRKCNRCRLPVVFRYSWNERTRAMDCTPFECIISYLTPRSITALLQSCYTMMSEFPVCGYPFYDSIQQRFPSFYPGAQIGRGTFGTVFKCEDRSAADHKRAILKCISKATNLTYTRWMGALTELRILESVNHPNVAHLLGAFQTREDLVIVMEAGEGGTARRAAAGVREYGQAAEEAFTANIIEGVAAGLNYLYREKHIIHRDIKLDNIVLSADYSTPMIIDFGLAEFVVNEEEQWYVVGGTRNYAAPESIAAVANGHVDMKEPGITMHKGDLFSLGVVAYYLLSGHRPFRSRSFDKMHEEMRRGVACTGPLWDGVSSDARELVQALLSYDPAQRPDYAAIKENPFITARTAGVKSIQMQRNARLLLDEEETHAEWVTLEPSDLREAADEGESEVLLPLSTPQRWYHAYLPRFSLLHL,not soluble
3,GPGSMGEGRIRCYYEVLEVERKATYDEIRTAYKKKSLQYHPDKNYGNQEEAAMRFKEVQNAYSILSDADERAWYDSHREAILRGGDGTGDLDELNLYEYFTAGCFDGFDDGESGFYTVYRKVFDILIEEESDYDSRAKLWPGFGTSTSDWADVQKFYGYWRNFSTYKTFTWKDEYKVNEMEDRYSRRMAGRINSKARDGAKKEYVRTVQSLAQFVYRRDPRVKAELERQEKEDQAKREERERQEIERLKRRREANERVWAEAAEREAREEAERAARGEAMDGSILEMLYEKERQTKEMMRGSGGVGAHTAGFAMLGGDDDEAVTVFNCPACKKQFKSENQYKEHVRSNKHKTKLKQLAAKGTDVAALMGEKVEGGSGGTEE,soluble
4,GPGSMGIPLPKPVMTQLQERYGNTIFRCGSNCVNGYRETMEDAHLTYLTDSWGFFGVFDGHVNDQCSQYLERAWRSAIEKESIPMTDERMKELALQIDQEWMDSGREGGSTGTFFVALKEGNKVHLQVGNVGDSRVVACIDGVCVPLTEDHKPNNEGERQRIENCAGRVENNRVDGSLAVSRAFGDREYKLGSGSQLEQKVIALADVQHKDLTFNSNDFVLLCCDGVFEGNFPNEEVVAYVKQQLETCNDLAEVAGSVCEEAIERGSRDNISCMIVQFKDGSDYAAAPHTTVVPGPFSAPRNSGFRKAYESMADKGNTTVGALLEKRYDTLKAAEALTPEETEELSQFENGPEAKLTGAERQKWFSNYFQKLCEAASNGPSDQMERLQSLQQQAGIPLSILLSLMGEQTQ,soluble
5,GPGSMIEADVIRLNMEVEAAAARNADLSREVARLREELANSGLHNMDRTLVITEGTQTDSGMLREVALDLDDILFEVSELLFRLYPASSLDLSVRRDAQSSQLNDLSQRCLREVRSLKAAWEMKLDGYNQFISNIQRSQVDYHRSLDSKECQLRRKQQECDVLVGENARLSTLCSELESQLKTTQEAATRAEEQVGRLLQQTADLEAERRRLLDREAAMANTLVALRAECAFNPWSSLVGVKEAATTIESNGQLPSVREQAVAVTKAHIKPPGAVSASDVAMAFQGLDLDGQLPHMCVEPESVVDYYCKVKHSSPTRSLM,soluble
6,GPGSMIGAPWPPEAVFGNTVDRVASPAPVPERKISIADQLHLPLSRFVEKMSWGEKRRVQILHGMLYPATVYLLDECSTDIDVAERRTVLELVRQECEAKDGCCVYATHIFDGIEGWATHLLLMEGGRVVDFKAVEKLTLPLEDYALQFMSKRAHAARGVDGVAAASLSHGSSAAISTTS,soluble
7,GPGSMINLPDMWTAEQRRQHVAEMYRNKGLICPDYFLKNECPRSSSCSYIHIRNGETRKVPLSVCHFYAKRACLRDKCVFFHGTQAQLDQLHAMGAQTYRPQDYMAFAIPPPELLGTDQNVAPPVVTMPMPVPAPLVNNTMPISKPATNSPLLLLPIDASAATPFSMYWSSSPCQHRSPLSPAPIPGLAEPRPPAVSHPYTVFSFFQ,not soluble
8,GPGSMLDRLSCLGPRTKRWLHNNLRGRYVRVCTREQHSRKQLTPAGGPQGSALRPQLFLHCVDDLLRRMDNIYSASALMYADDLTVVASGAGTHACAAAMPPALSLITAWAAEHNHKINVDKSEAALFHISSHTRSDDEMVNLHLGNGKLRIQSRPVRLLDTTMDQLLNFDYARFHRFK,not soluble
9,GPGSMLKRSVSAAARKAGADTLAAAPAAGQQPPSNPLLPYALRRAAACEMLYGGSRVQYLVQPPFTLHKIRSENLPPPSLYAERHDLGLEMQLPRDMHVYNSINMAIQRQVGGDSSTLDGEQQQLQGGHADGFDMGAFFTEQHHPERHHNSSLPYAKHDTNNVLAMRLFPVNVGVRARTEAIRIRTDDCLQRLRDADLCAKMRLPLEHPLPLSRRSQYAAIHRVRQERCYDAPTEAAGERAAAAAEEASRTAHLRGAAAHPPPSELSIVTRPVDRLGSHSGSSAAACTADADHLSFPVHPFAAAAVSSGCHSARSGSAARLASQRWLPLQTLKPMGHNWSAATRSSGVRGPHMQLMQERLDQKGFGWKRKSRSLWQQDVATAGFRPHRYF,soluble
10,GPGSMLRRCAPLLIGVEGDTFVSAIKDKQYLAHRLAILGKEDPNFKAQCMSDDDIKRFTTSLGSAESLFNKQAGAIPTNVVDEETGRVIGSTQPDPTRYGDWEVNGRCYDF,soluble
11,GPGSMMEGSPSEVHVHSSMAMGLQERPPLELVSHASEVSCLTINDNYDMWNASMYPNLNSGFDASLTSATTPDTTVARFAPAMRPHRKQQLSHQMMPLPARGEQTMSDIDSEVVLWDRPPTQDVLGSPAASGL,soluble
12,GPGSMNCFGVRNWWRNNLPELQLLNPFCSFTIQELSFGEPHMYINYTPTDQRMIRLAGATEDECEDIMEACITYGMNHAIIERPRTDDGGDLINQPAITSFGYTESFMSKLEVSPPADIGQRTPEGVDDPGQKPRVYPRNVGFKIMP,not soluble
13,GPGSMPAAPLPGEVAKFCSPLYMHKRILRAAAPKPPTVFTAKDNSKTAFHVVTQRPGFATTPYTVSRWYLKEKVHSSNRNRLEGLYECVLCASCTGSCPQYWWNRELFLGPAVLLQSYRWLIEPLDRDFDSRVKMFEHGPLVNFCHNIFNCSITCPKFLNPGMASKEIKRLSSPATLRVGPPLEDAKVASKY,not soluble
14,GPGSMPSLANGLRCPDALITRTLNPLLNGPKFAVIYCGNHQYKVAVGDVIAVQRLRVEIGSHIALKKVLMVGGPRFTAIGRPLLEGVRVTAQVEEQKRMRNVVSLFATPGRRHVRWVDAPHAATVIRICEIFYSPNVVGELDKYKGELLETFTPGQHTNPVYPVDDGYDVFRKKDKEAMENATTFLDLLGGV,not soluble
15,GPGSMPWEVKADNAYGIDYNKLIDKFGCKLITKDMIERMERLTGQKAHHFFRRNIFLSHRDFEKILDVYEKGELFYLYTGRGPSSESLHVGHLVPFLFTKYLQDTFKVPLVIQLTDDEKFIFKSNLTLEETHNYAYENMKDIIACGFDPELTFIFTNLEYIAELYPDILRIEKKISCSQIKSIFGFKDSCNVGKFAFPAVQAAPAFSSSFPHIFGGRTDIHCLVPHAIDQDPYFRMVRDVAPRLGYLKPSSIHSIFLPSLQGSQTKMSASVQNSSIFVNDNEESIRNKIMKYAFSGGQATEEEQRRLGANLDVDVSWQYLRFLMEDDEKLEEIGKKYSSGEMLSGEIKSILVQELVKLTKNHQKNREAINDDVIAKFTNKSREQLLKLFINKK,soluble
16,GPGSMQAPSEDDVARKEALKRRVEEHMLWKMTFFQSRPPPPFIPKCRRRPEPIANAPVHSFYKRALEIVSAEKEHMSSFCSSASPPTMTKTEPPEGDGAKSKQDVWKHKMMLEMERRNPYTDINIRTDPRSTVVVSSLHPKSLEEDIRLFGEQFGRVVSVRLICDHNGKSRRYGFVQFGLEAEARKAVAHSRKRRLHGHAVVMEMERGRLDRDFLPKRLAEAKRQIEGSSSLCSDKRQRMEGSVKCPPAVAAGRSLPIPVSDTRDEVDAFLDDIMNLT,not soluble
17,GPGSMQKSKRHGMHMDFNPLEHCNAPMDSVVGYSSDVPSMSNCHRHWLSETYAYTTIGYPHEVMKKMPYGSEWKRAPTGLCWTADEFVARYLLHTRGIFVYFGGSRHDLYWENLKFFGSSGMHRLYERINFENKVEVTTTKRRKRHTPLVGDVVVWDSDYKAYFPRGHVAVVVKVEDDVSAAGGEAALRELKKERRQPSLVYIAEQNFDNKNWEGRNFSRVLKFTWMRGDRASLEDPDGPPLMGHVRVGKLLEDASFFGDL,not soluble
18,GPGSMQRLFFRSTCARVRCADLRLKPPVSIPQVTFQTVAFSSSAAGAAVRSGAEGTNTTTKRRSGFGGGAGGGGPVKDRYPPPATDLGDPRRRLAVLVDASSVDPRVFRNTILPAALKVGTPVLIRIFSVQLSSEWEPLVAGSGGTRESATSTEPEWKTSGTANDGREEVSGAAGSRDSGAWCPPVEFFRVERFIPVPMQMEADANHIFDFRKQNQIEAVAFVCGEVDRGVFEGFLPNIAGNGFNQYVLDELGMAKEVLEDGRSEDGTPTVQK,soluble
19,GPGSMRGVYPYLFAEDMRSRGAGEPAKKEVKKNKFVATINWELFTRVERMDVVFSPRPKGVTTGNEGDIADGCETGAPAVWSFVPVGVPHGENYRANAFLVPMHDKSESPRLLLYVSDISELEDRFFTDLARSKVLLGVDPAVPIEVLVLDMLSRRPYVAHLHVEASIAAAKRINAAKTYYVGMSHRINYDEMMQELQQLGLGATMEMGYDGCVVSVGDSGLQHLSGRL,not soluble
20,GPGSMRISERAFMDIAIGTKAPRRIVFKLFPRKCPSAVKNFIELCSGNVSTDTYESGNRDKLISESALPQLTYKNSTFHRVEKGYLIQGGDIVTGRGTEQLSIYGGTFSAPEEVRASVFDKPGLVGTASSSPNAHGSQFFILTAKEANHLNGTCICFGQVADGLDVVQEIEQVPIDPSGFPSLKVSIVDCGVLE,soluble
21,GPGSMRSASAYGLDGQARSLCSLYHPSLNSQECHRFLIGTANPSADNKIHLIEYQDDTKSLECATVWSHNDPVMGLWCSPSLSADSLLAVSSLRKLVVFQISENVLNEPKCIATMNKNYSRVLWDLDGLQREFRAVHQNTLTTVFLSSSKLGSETVNYTSSGGFIRCAALAPYDPNLCLISCDSDGLQLVDLRSKKASSFATTKYSHGFGYTTAVDFDRLKPGQFLSAGTDGYVYIHDIRYNTSCSLAILRHMKAHEHAVQSCSFNSFRDELVLSCSSDQTLKLWDVEHNNEPKCLRRLADYGDSVVALCWSGNSPWVFAGLSFNGKLLVDTVPNEKKMSILLDEKKWCET,not soluble
22,GPGSMSYYCSGGHCLKYATPGREPPDPQLFPHYMQNAQNLWLHFSEWWPHGDGGSCPAPPTKGVVFIVPGLGEHTGRYDSVALRLNQEGYVVFSMDNQGTGGSEGERLYVECFTHFVDDVCAFVVFIQTRYAALKSQPTFLMGHSMGGLIATLVAQRDASGFRGVVLSGPALGLSKPVPCFMRSLAHFLSQWFPKLPVRKLDPDLVSYNTPVVQLVKQDPFYSNVTLRARFVDEMLIAQDRAAEAAGTSQFPFLIVHGEEDQLCSLETSKSFFKSALSEDKNLVSYPRAGHEVLTELCRAEVMAEVIKFIDERAR,not soluble
23,GPGSMVHRQDGAVVHCSRETGRLSAIIAPSILASDFAQLLSECQSVLSPEGGAADWLHVDVMDGHFVPNISIGMCVVQSLRSHLQDVFLDVHCMVSDPDRWVEEMAKAGATQMTFHVEAVADPKAVARHIRAAGMLCGVALKPKTPVSSVLNLVEEQLIDMVLVMTVEPGFGGQSFMQDMMPKVEELRARFPCLNIQVDGGIGPGTIDAPARAGANVIVAGTSIFRADSRKEATESMRRVVQGYLGSTTS,soluble
